Measured values: the supplement of paper PMC6755084

tested on: F1*sub RNA substrate (template-directed ligation); test: fraction ligated after 30 min (ligated reads / total reads); higher = more ligase activity; sequences stand for … in GAGACCGCAACTGAAAAGTTGT…AGTTCTGCACGTAGAAGCAAAAGGC; conditions: 42 °C
Procedure, shortened: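 The ligase ribozyme variants were produced by PCR amplification of oligo-pool templates, T7 transcription and purification on gel. Their ligated and unligated forms were gel-separated, then reverse transcribed with barcoded primers before MiSeq sequencing. Core bases were filtered at a quality of ≥20, and fraction ligated per variant was ligated reads over total reads.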

Row | Sequence | fraction ligated
1 | TATACTTGTGAAGACACTTTGGATGGGTTGA [3d829] | 0.756
2 | TATACTTGTGTAAACACTTTGGATGGGTTGA [3d831] | 0.799
3 | TATACTTGTGTAAGAACTTTGGATGGGTTGA [3d833] | 0.814
4 | TATACTTGTGTAAGACACTTGGATGGGTTGA [3d836] | 0.756
5 | TATACTTGTGTAAGACACTTTGATGGGTTGA [3d837] | 0.81
6 | TATACTTGTGTAAGACACTTTGGAGGGTTGA [3d839] | 0.0723
7 | TATACTTGTGTAAGACACTTTGGATGGGTTA [3d841] | 0.134
8 | TATACTTGTGTAAGACACTTTGGATGGGTTG [3d842] | 0.809
9 | TATACTTGTGTAAGACACTTTGGATGGGTTGA [2d74] | 0.805
10 | TATACTTGTGTAAGACACTTTGGATGGTTGA [3d840] | 0.109
11 | TATACTTGTGTAAGACACTTTGGTGGGTTGA [3d838] | 0.0565
12 | TATACTTGTGTAAGACATTTGGATGGGTTGA [3d835] | 0.764
13 | TATACTTGTGTAAGACCTTTGGATGGGTTGA [3d834] | 0.721
14 | TATACTTGTGTAAGCACTTTGGATGGGTTGA [3d832] | 0.776
15 | TATACTTGTGTAGACACTTTGGATGGGTTGA [3d830] | 0.776
16 | TATACTTGTTAAGACACTTTGGATGGGTTGA [3d828] | 0.793
17 | TATACTTTCGAAGACACTTTGGATGGGTTGA [3d798] | 0.451
18 | TATACTTTCGTAAACACTTTGGATGGGTTGA [3d800] | 0.307
19 | TATACTTTCGTAAGAACTTTGGATGGGTTGA [3d802] | 0.778
20 | TATACTTTCGTAAGACACTTGGATGGGTTGA [3d805] | 0.43
21 | TATACTTTCGTAAGACACTTTGATGGGTTGA [3d806] | 0.105
22 | TATACTTTCGTAAGACACTTTGGAGGGTTGA [3d808] | 0.00847
23 | TATACTTTCGTAAGACACTTTGGATGGGTTA [3d810] | 0.00702

Row | Sequence | fraction ligated
24 | TATACTTTCGTAAGACACTTTGGATGGGTTG [3d811] | 0.145
25 | TATACTTTCGTAAGACACTTTGGATGGGTTGA [2d72] | 0.542
26 | TATACTTTCGTAAGACACTTTGGATGGTTGA [3d809] | 0.0312
27 | TATACTTTCGTAAGACACTTTGGTGGGTTGA [3d807] | 0.00703
28 | TATACTTTCGTAAGACATTTGGATGGGTTGA [3d804] | 0.754
29 | TATACTTTCGTAAGACCTTTGGATGGGTTGA [3d803] | 0.53
30 | TATACTTTCGTAAGCACTTTGGATGGGTTGA [3d801] | 0.539
31 | TATACTTTCGTAGACACTTTGGATGGGTTGA [3d799] | 0.268
32 | TATACTTTCTAAGACACTTTGGATGGGTTGA [3d797] | 0.562
33 | TATACTTTGTAAGACACTTTGGATGGGTTGA [3d796] | 0.74
34 | TATATGTCGTAAGACACTTTGGATGGGTTGA [3d758] | 0.57
35 | TATATTGCGTAAGACACTTTGGATGGGTTGA [3d760] | 0.355
36 | TATATTGTCGAAGACACTTTGGATGGGTTGA [3d763] | 0.376
37 | TATATTGTCGTAAACACTTTGGATGGGTTGA [3d765] | 0.367
38 | TATATTGTCGTAAGAACTTTGGATGGGTTGA [3d767] | 0.468
39 | TATATTGTCGTAAGACACTTGGATGGGTTGA [3d770] | 0.641
40 | TATATTGTCGTAAGACACTTTGATGGGTTGA [3d771] | 0.288
41 | TATATTGTCGTAAGACACTTTGGAGGGTTGA [3d773] | 0.0159
42 | TATATTGTCGTAAGACACTTTGGATGGGTTA [3d775] | 0.0168
43 | TATATTGTCGTAAGACACTTTGGATGGGTTG [3d776] | 0.214
44 | TATATTGTCGTAAGACACTTTGGATGGGTTGA [2d70] | 0.61
45 | TATATTGTCGTAAGACACTTTGGATGGTTGA [3d774] | 0.0779
46 | TATATTGTCGTAAGACACTTTGGTGGGTTGA [3d772] | 0.0169
